Experimental data from US20020009726A1 (LA JOLLA CANCER RESEARCH FOUNDATION, published 2002).

How the values were obtained:
[1] = target: LexA fusion of Ha-Ras (V12) (UniProt P0A7C2 1-202; P01112 1-189, limits assumed); assay: yeast two-hybrid, growth on histidine-deficient medium (HIS3 reporter)
Protocol: (§1) The 166 clones were cured of LexA/CD40-encoding plasmids by growing the cells in tryptophan-containing medium. […] The mated cells were selected for growth in medium lacking tryptophan and leucine to obtain cells that contained both a pACT-B cell clone and a LexA-fusion protein. Colonies were transferred to histidine-deficient plates or histidine-containing media with X-Gal. Colonies expressing β-gal activity were identified using a plate assay and a filter assay. The plate assay was performed on the X-Gal containing plates -12 hr after plating according to previous methods (see Chien et al., Proc. Natl. Acad. Sci., USA 88:9578-9582 (1991), which is incorporated herein by reference). The β-gal filter assay was performed after 1 hr culture as described previously (Sato et al., supra, 1994; Breeden and Nasmyth, Cold Spring Harbor Symp. Quant. biol. 50:643-650 (1985), which is incorporated herein by reference).

[2] = target: T1, LexA fusion of Bcl-2 (positions 83-218) (UniProt P0A7C2 1-202; P10415 83-218); assay: as above
T1 construct: also called Bcl-2 (83-218)
Protocol: as §1

[3] = target: T2, LexA fusion of Lamin-C (UniProt P0A7C2 1-202; P02545 66-230); assay: yeast two-hybrid, beta-galactosidase (lacZ reporter)
T2 sequence (looked up): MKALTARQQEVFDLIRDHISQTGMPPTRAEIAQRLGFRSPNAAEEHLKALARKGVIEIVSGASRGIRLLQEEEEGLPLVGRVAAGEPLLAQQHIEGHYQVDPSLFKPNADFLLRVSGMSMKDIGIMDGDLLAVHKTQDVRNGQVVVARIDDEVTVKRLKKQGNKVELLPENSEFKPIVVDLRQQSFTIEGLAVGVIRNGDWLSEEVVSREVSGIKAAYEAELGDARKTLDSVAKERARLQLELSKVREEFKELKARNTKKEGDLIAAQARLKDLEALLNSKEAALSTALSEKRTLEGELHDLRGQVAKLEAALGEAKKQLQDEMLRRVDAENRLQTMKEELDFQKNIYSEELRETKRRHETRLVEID
Protocol: as §1

Measured: binding result

B1: CAP-1 (pACT2229/GAL4 fusion) (other, not shown: small tags and cut ends)
chain: HDQMLSVHDIRLADMDLRFQVLETASYNGVLIWKIRDYKRRKQEAVMGKTLSLYSQPFYTGYFGYKMCARVYLNGDGMGKGTHLSLFFVIMRGEYDALLPWPFKQKVTLMLMDQGSSRRHLGDAFKPDPNSSSFKKPTGEMNIASGCPVFVAQTVLENGTYIKDDTIFIKVIVDTSDLPDP
notes: Yeast two-hybrid prey; also called pACT121; CD40 associated protein-1
no binding: all assays above
